The results in this text go back to patent US20170058036A1 (published 2017).

The target in assay [1] is T1, human dual endothelin-1/VEGF signal peptide receptor (DEspR) on intact cells (human, UniProt B0L3A2 1-85).
T1 construct: also called hDEspR; DEAR
T1 sequence: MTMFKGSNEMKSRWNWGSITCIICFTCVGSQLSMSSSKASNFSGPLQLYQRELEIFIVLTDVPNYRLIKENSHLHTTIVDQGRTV
As to the kind of experiment: FACS, AF-568-labeled mAb on Panc1 cells. On the procedure: (§1) Binding was quantified by FACS with corresponding isotype labeled antibodies as background controls. […] Furthermore, 6G8 humanized monoclonal antibodies were developed using two different human IgG Fc regions-human IgG1 and hinge-stabilized human IgG4, thus affirming high-affinity binding.
(§2) Neutrophils (50000/well) were incubated in the absence or presence of mAbs at 37° C. × 4 hrs and live cells counted by using Trypan blue. HUVEC-dependent angiogenesis (20,000 cells/well) was performed as described in the presence or absence of mAbs. Number of polygons and number of branch points were determined after 14 hrs of incubation at 37° C. ND, not done, indeterminate, value greater than upper limit of max dose used in these experiments.
(In general: A flow cytometer gives signals particle by particle.)

Assay [2] deals with T1, human dual endothelin-1/VEGF signal …. As to the kind of experiment: FACS, binding to DEspR on intact human cells at 4° C. On the procedure:
as §1
Binding was determined by FACS analysis.
as §2

Assay [3] concerns the target rat DEspR on rat neutrophils (rat). As to the kind of experiment: cell-based or functional assay.
Assay [4] shares this target. As to the kind of experiment: cell-based or functional assay. This is another data set of the same source.
Assay [5] addresses T1, human dual endothelin-1/VEGF signal …. As to the kind of experiment: saturation binding of AF568-labelled mAb to DEspR+ Panc1 cells, FACS. Here is the method: Saturation binding curves of monoclonal antibody (mAb) binding to DEspR on Panc1 CSCs. […] Specific binding was determined by FACS analysis using 100,000 cells in 0.25 ml containing increasing concentrations of mAbs. Incubations were done at 4° C. for 20 min and immediately subjected to FACS analysis on a BDTM LSRII Flow cytometer. Each data point was performed in duplicate.
Fully human VH5/VK1 has a slightly better Kd than VH3/VK2 fully human composite antibodies. […] (FIG. 16).

B1: 6g8g7-derived IgG4 humanized monoclonal antibody 1 (antibody)
heavy: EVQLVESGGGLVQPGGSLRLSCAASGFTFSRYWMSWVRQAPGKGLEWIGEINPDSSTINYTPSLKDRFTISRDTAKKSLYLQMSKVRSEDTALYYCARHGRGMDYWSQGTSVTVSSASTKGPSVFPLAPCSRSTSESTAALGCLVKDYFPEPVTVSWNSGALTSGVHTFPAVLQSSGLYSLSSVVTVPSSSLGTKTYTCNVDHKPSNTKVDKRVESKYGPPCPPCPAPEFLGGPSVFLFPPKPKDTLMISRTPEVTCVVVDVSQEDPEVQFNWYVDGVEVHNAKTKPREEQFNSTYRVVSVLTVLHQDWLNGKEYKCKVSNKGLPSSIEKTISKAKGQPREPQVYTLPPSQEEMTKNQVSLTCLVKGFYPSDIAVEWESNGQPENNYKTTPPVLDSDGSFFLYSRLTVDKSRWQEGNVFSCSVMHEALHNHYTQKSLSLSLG
light: DIVLTQSPDILSVSLGERATVNCKASQNVDSNVAWYQQKPGHPPKLLIYSASYRYSRVPDRISGSGSGTDFTLTISNLQAEDVAVYYCQQYHSYPLLAFGAGTKLELKRTVAAPSVFIFPPSDEQLKSGTASVVCLLNNFYPREAKVQWKVDNALQSGNSQESVTEQDSKDSTYSLSSTLTLSKADYEKHKVYACEVTHQGLSSPVTKSFNRGEC
notes: Hinge-stabilized (S228P) human IgG4 / kappa, transiently expressed in HEK293; also called 6g8^IgG4 humab1; 6g8IgG4 humab1
Consider B1, for which the EC50 in assay [1] and in assay [2] was 21.1 nM in each case. Further, in assay [3], the “Rat Neutrophil survival, IC50” value was found to be 1.16 µg/mL. The “Rat activated Neutrophil survival, IC50” value in assay [4] worked out at 1.16 µg/mL.

B2: IgG1 6G8G7 humanized monoclonal antibody (antibody)
heavy: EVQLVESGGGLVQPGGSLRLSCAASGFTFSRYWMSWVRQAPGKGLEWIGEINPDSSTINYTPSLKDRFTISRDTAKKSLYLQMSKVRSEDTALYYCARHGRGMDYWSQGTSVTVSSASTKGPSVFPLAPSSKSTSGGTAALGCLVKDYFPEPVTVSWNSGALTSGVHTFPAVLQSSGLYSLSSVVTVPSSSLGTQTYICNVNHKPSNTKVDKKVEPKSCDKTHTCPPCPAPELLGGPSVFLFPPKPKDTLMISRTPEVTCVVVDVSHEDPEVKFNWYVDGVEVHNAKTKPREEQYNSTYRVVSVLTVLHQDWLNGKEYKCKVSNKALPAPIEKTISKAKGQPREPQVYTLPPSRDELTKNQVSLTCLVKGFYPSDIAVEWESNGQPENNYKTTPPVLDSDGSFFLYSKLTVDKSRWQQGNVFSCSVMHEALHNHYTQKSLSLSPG
light: DIVLTQSPDILSVSLGERATVNCKASQNVDSNVAWYQQKPGHPPKLLIYSASYRYSRVPDRISGSGSGTDFTLTISNLQAEDVAVYYCQQYHSYPLLAFGAGTKLELKRTVAAPSVFIFPPSDEQLKSGTASVVCLLNNFYPREAKVQWKVDNALQSGNSQESVTEQDSKDSTYSLSSTLTLSKADYEKHKVYACEVTHQGLSSPVTKSFNRGEC
With B2, in assay [3], the “Rat Neutrophil survival, IC50” value stood at 6.98 µg/mL. Further, the “Rat activated Neutrophil survival, IC50” value in assay [4] worked out at 6.98 µg/mL.

B3: 7C5B2 murine anti-human DEspR monoclonal antibody (antibody, V domains shown)
VH: QVQLKESGPGLVAPSQSLSITCTVSGFSLKSYAVSWVRQPPGKGLEWLGVIWGDGSTDYHSALISRLSISKDNSKSQFFLRLNSLQTDDTATYYCARGTGTGFAYWGQGTLVTVSA
VL: DVVMTQTPLSLPVSLGDQASISCRSSQSLVHSNGNTYLHWYLQKPGQSPKLLIYKVSNRFSGVPDRFSGSGSGTDFTLKISRVEAEDLGIYFCSQCTHIPWTFGGGTNLEIK
notes: Murine hybridoma antibody raised against the 9-aa N-terminal peptide of DEspR; An IgG2b isotype control was used with it; It was AF568-labelled in the FACS and imaging assays; also called 7C5-murine monoclonal antibody; lead mouse prototype anti-human DEspR monoclonal antibody
Turning to B3, the Kd – broadly, the concentration at which binding is half-saturated – in assay [5] is roughly 33 nM.

B4: 6G8G7 murine anti-DEspR monoclonal antibody (antibody, V domains shown)
VH: EVQLQESGGGLVQPGGSLKLSCAASGFDFSRYWMSWVRQAPGKGLEWIGEINPDSSTINYTPSLKDKFIISRDTAKKTLYLQMSKVRSEDTALYYCARHGRGMDYWSQGTSVTVSS
VL: DIVLTQTNQIMSASVGDRVSVTCKASQNVDSNVAWYQQKPGHSPKALIYSASYRYSRVPDRITGSGSGTDFTLTITNVQSKDLADYFCQQYHSYPLLAFGAGTKLELKR
With B4, in assay [5], the Kd was roughly 33 nM.
